According to patent US20260285962 (published 2026):

T1: BMP10 (UniProt O95393)
T1 chain: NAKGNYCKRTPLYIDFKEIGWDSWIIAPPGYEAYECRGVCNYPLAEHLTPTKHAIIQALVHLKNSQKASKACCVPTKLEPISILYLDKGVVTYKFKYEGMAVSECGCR

T2: Human GDF10 (human, UniProt P55107)
T2 chain: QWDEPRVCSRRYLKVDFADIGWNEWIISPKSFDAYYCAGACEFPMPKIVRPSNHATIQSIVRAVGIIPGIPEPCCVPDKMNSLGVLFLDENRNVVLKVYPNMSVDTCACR

T3: Human Activin A-Fc (human)
T3 chain: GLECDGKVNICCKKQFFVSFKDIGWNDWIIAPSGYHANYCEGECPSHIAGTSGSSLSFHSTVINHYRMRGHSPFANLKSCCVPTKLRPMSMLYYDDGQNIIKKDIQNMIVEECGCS

T4: Human Follistatin 300 (human, UniProt P19883)
T4 chain: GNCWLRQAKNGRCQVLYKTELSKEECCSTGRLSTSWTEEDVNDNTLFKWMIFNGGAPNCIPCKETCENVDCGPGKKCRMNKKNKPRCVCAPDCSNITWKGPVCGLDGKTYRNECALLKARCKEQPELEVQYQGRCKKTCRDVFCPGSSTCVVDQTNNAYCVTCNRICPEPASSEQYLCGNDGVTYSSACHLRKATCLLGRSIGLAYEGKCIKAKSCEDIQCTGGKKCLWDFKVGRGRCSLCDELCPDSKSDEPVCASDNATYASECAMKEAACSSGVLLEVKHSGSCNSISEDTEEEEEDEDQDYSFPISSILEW

T5: BMP9 (UniProt Q9UK05)
T5 chain: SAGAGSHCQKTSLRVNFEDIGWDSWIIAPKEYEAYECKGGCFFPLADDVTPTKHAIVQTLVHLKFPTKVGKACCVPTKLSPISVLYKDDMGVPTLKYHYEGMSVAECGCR

T6: Human Activin B (human)
T6 chain: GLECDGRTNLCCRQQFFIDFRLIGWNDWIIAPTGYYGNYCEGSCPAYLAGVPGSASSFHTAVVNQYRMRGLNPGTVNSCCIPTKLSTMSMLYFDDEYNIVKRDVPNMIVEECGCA

T7: GDF15-Fc (UniProt Q99988)
T7 chain: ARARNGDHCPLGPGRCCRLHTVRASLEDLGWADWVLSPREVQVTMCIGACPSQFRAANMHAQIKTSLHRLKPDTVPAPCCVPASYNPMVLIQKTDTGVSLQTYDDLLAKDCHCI

T8: Human GDF11 (human, UniProt O95390)
T8 chain: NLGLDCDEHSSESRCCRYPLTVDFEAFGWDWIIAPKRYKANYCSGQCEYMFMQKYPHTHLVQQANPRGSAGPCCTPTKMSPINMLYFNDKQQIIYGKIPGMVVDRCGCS

T9: Human GDNF (human, UniProt P39905)
T9 chain: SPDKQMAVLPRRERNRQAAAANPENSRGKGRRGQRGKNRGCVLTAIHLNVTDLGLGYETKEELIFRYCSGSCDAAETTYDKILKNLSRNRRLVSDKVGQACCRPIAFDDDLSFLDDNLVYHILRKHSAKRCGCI

T10: Human Activin A (biotinylated) (human)
T10 chain: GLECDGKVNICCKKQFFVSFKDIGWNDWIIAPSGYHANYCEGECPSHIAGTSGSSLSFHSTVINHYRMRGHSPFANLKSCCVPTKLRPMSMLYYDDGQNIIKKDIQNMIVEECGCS

B1: Clone B IgG (antibody, V domains shown)
VH: QLQLQESGPGLVKPSETLSLTCTVSGGSISSQQYYWGWIRQPPGKGLEWIGSISYAASTYYNPSLKSRVTISVDTSKNQFSLKLSSVTAADTAVYYCAREGYDSYSYDVWGQGTMVTVSS
VL: EIVLTQSPATLSVSPGERATLSCRASQSVGSNLAWYQQKPGQAPRLLIYGASTRATGIPARFSGSGSGTEFTLTISSLQSEDFAVYYCQQYNFYPPITFGGGTKVEIK
B2: Clone A IgG (antibody, V domains shown)
VH: QLQLQESGPGLVKPSETLSLTCTVSGGSISSSSYYWGWIRQPPGKGLEWIGSISYSGSTYYNPSLKSRVTISVDTSKNQFSLKLSSVTAADTAVYYCAREGYDSYSYDVWGQGTMVTVSS
VL: EIVLTQSPATLSVSPGERATLSCRASQSVGSNLAWYQQKPGQAPRLLIYGASTRATGIPARFSGSGSGTEFTLTISSLQSEDFAVYYCQQYNFYPPITFGGGTKVEIK
B3: Clone A Fab (antibody, V domains shown)
VH: QLQLQESGPGLVKPSETLSLTCTVSGGSISSSSYYWGWIRQPPGKGLEWIGSISYSGSTYYNPSLKSRVTISVDTSKNQFSLKLSSVTAADTAVYYCAREGYDSYSYDVWGQGTMVTVSS
VL: EIVLTQSPATLSVSPGERATLSCRASQSVGSNLAWYQQKPGQAPRLLIYGASTRATGIPARFSGSGSGTEFTLTISSLQSEDFAVYYCQQYNFYPPITFGGGTKVEIK
B4: Clone C IgG (antibody, V domains shown)
VH: QLQLQESGPGLVKPSETLSLTCTVSGGSISSYDPYWGWIRQPPGKGLEWIGSISYSGSTLYNPSLKSRVTISVDTSKNQFSLKLSSVTAADTAVYYCAREVSYLGSRRYGMDVWGQGTTVTVSS
VL: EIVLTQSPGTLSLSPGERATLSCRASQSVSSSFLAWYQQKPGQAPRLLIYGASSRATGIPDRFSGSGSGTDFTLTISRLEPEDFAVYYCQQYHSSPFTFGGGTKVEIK
B5: Clone C Fab (antibody, V domains shown)
VH: QLQLQESGPGLVKPSETLSLTCTVSGGSISSYDPYWGWIRQPPGKGLEWIGSISYSGSTLYNPSLKSRVTISVDTSKNQFSLKLSSVTAADTAVYYCAREVSYLGSRRYGMDVWGQGTTVTVSS
VL: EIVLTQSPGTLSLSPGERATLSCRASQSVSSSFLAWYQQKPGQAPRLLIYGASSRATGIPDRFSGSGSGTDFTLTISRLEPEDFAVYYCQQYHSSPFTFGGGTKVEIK
B6: Clone B Fab (antibody, V domains shown)
VH: QLQLQESGPGLVKPSETLSLTCTVSGGSISSQQYYWGWIRQPPGKGLEWIGSISYAASTYYNPSLKSRVTISVDTSKNQFSLKLSSVTAADTAVYYCAREGYDSYSYDVWGQGTMVTVSS
VL: EIVLTQSPATLSVSPGERATLSCRASQSVGSNLAWYQQKPGQAPRLLIYGASTRATGIPARFSGSGSGTEFTLTISSLQSEDFAVYYCQQYNFYPPITFGGGTKVEIK

Legend:
[1] = target: T1, BMP10; experiment: BLI, bivalent
[2] = target: T2, Human GDF10; experiment: BLI, bivalent
[3] = target: Human GDF8 (human, UniProt O14793); experiment: BLI, bivalent
Sequence of Human GDF8 (O14793 267-375): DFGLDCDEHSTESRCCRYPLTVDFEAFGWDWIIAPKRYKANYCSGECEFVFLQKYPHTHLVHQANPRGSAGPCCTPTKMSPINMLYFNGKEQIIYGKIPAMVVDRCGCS

[4] = target: T3, Human Activin A-Fc; experiment: BLI, bivalent
[5] = target: T4, Human Follistatin 300; experiment: BLI, bivalent
[6] = target: T5, BMP9; experiment: BLI, bivalent
[7] = target: T6, Human Activin B; experiment: BLI, bivalent
[8] = target: T7, GDF15-Fc; experiment: BLI, bivalent
[9] = target: T8, Human GDF11; experiment: BLI, bivalent
[10] = target: T9, Human GDNF; experiment: BLI, bivalent
[11] = target: T10, Human Activin A (biotinylated); experiment: SPR, 25C, monovalent
[12] = target: T3, Human Activin A-Fc; experiment: BLI, monovalent
[13] = target: T8, Human GDF11; experiment: BLI, bivalent
[14] = target: T2, Human GDF10; experiment: BLI, bivalent

Row | Binder | binding result [1] | binding result [2] | binding result [3] | Kd [4] | binding result [5] | binding result [6] | Kd [7] | binding result [8] | binding result [9] | binding result [10] | Kd [11] | Kd [12] | Kd [13] | Kd [14]
1 | B1 | no binding | no binding | no binding | 0.545 nM | no binding | no binding | 0.766 nM | no binding | no binding | no binding | – | – | – | –
2 | B2 | no binding | no binding | no binding | 0.661 nM | no binding | no binding | 0.76 nM | no binding | no binding | no binding | – | – | – | –
3 | B3 | – | – | – | – | – | – | – | – | – | – | 1.64 nM | 3.55 nM | – | –
4 | B4 | no binding | – | no binding | 0.552 nM | no binding | no binding | 0.861 nM | no binding | – | no binding | – | – | 8.41 nM | 25.8 nM
5 | B5 | – | – | – | – | – | – | – | – | – | – | 0.0832 nM | 0.963 nM | – | –
6 | B6 | – | – | – | – | – | – | – | – | – | – | 0.903 nM | 2.1 nM | – | –
